{"source": "the Immune Epitope Database (IEDB)", "details_in_all_cases": "source organism: Human immunodeficiency virus type 1 (JRCSF ISOLATE)", "key": {"HLA-A*03:01 [1]": {"target": "HLA-A*03:01", "assay": "IEDB peptide-MHC binding, purified MHC/competitive/radioactivity; filed as Kd, often an IC50 or EC50 that approximates it; ≥ and ≤ were set here for values at or beyond the usual limits of such assays"}, "HLA-A*03:01 [2]": {"target": "HLA-A*03:01", "assay": "IEDB peptide-MHC binding, purified MHC/competitive/radioactivity; ≥ and ≤ were set here for values at or beyond the usual limits of such assays"}, "HLA-A*11:01 [3]": {"target": "HLA-A*11:01", "assay": "IEDB peptide-MHC binding, purified MHC/competitive/radioactivity; ≥ and ≤ were set here for values at or beyond the usual limits of such assays"}, "HLA-A*11:01 [4]": {"target": "HLA-A*11:01", "assay": "IEDB peptide-MHC binding, purified MHC/competitive/radioactivity; filed as Kd, often an IC50 or EC50 that approximates it; ≥ and ≤ were set here for values at or beyond the usual limits of such assays"}}}
{"sequence": "MTKILEPFR", "values": [{"measurement": "Kd", "setting": "HLA-A*03:01 [1]", "value": 13.8, "unit": "µM"}]}
{"sequence": "KIQNFRVYYR", "values": [{"measurement": "IC50", "setting": "HLA-A*03:01 [2]", "value": 0.344, "unit": "µM"}]}
{"sequence": "TIKIGGQLK", "values": [{"measurement": "IC50", "setting": "HLA-A*03:01 [2]", "value": 0.0407, "unit": "µM"}, {"measurement": "IC50", "setting": "HLA-A*11:01 [3]", "value": 0.182, "unit": "µM"}]}
{"sequence": "MAVFIHNFK", "values": [{"measurement": "IC50", "setting": "HLA-A*03:01 [2]", "value": 0.647, "unit": "µM"}, {"measurement": "IC50", "setting": "HLA-A*11:01 [3]", "value": 0.02, "unit": "µM"}]}
{"sequence": "TTLFCASDAK", "values": [{"measurement": "IC50", "setting": "HLA-A*03:01 [2]", "value": 0.12, "unit": "µM"}, {"measurement": "IC50", "setting": "HLA-A*11:01 [3]", "value": 0.0273, "unit": "µM"}]}
{"sequence": "MVHQAISPR", "values": [{"measurement": "IC50", "setting": "HLA-A*03:01 [2]", "value": 0.0611, "unit": "µM"}, {"measurement": "IC50", "setting": "HLA-A*11:01 [3]", "value": 0.0896, "unit": "µM"}]}
{"sequence": "QMVHQAISPR", "values": [{"measurement": "Kd", "setting": "HLA-A*11:01 [4]", "value": 6, "unit": "µM"}, {"measurement": "IC50", "setting": "HLA-A*03:01 [2]", "value": 0.423, "unit": "µM"}]}
{"sequence": "YLAWVPAHK", "values": [{"measurement": "IC50", "setting": "HLA-A*03:01 [2]", "value": 0.143, "unit": "µM"}]}
{"sequence": "AVFIHNFKR", "values": [{"measurement": "IC50", "setting": "HLA-A*03:01 [2]", "value": 0.0647, "unit": "µM"}, {"measurement": "IC50", "setting": "HLA-A*11:01 [3]", "value": 0.0033, "unit": "µM"}]}
{"sequence": "AIFQSSMTK", "values": [{"measurement": "IC50", "setting": "HLA-A*03:01 [2]", "value": 0.01, "unit": "µM"}]}
{"sequence": "TLFCASDAK", "values": [{"measurement": "IC50", "setting": "HLA-A*03:01 [2]", "value": 0.118, "unit": "µM"}]}
{"sequence": "QMAVFIHNFK", "values": [{"measurement": "IC50", "setting": "HLA-A*03:01 [2]", "value": 0.0092, "unit": "µM"}]}
{"sequence": "NTPVFAIKK", "values": [{"measurement": "IC50", "setting": "HLA-A*03:01 [2]", "value": 0.333, "unit": "µM"}, {"measurement": "IC50", "setting": "HLA-A*11:01 [3]", "value": 0.1, "unit": "µM"}]}
